# Patent US20120316071A1 (published 2012)
# Assays:
# [1] = molecular target: T1, Recombinant Human DLL4 (delta-like protein 4) (human, UniProt Q9NR61 27-524); assay: ECL (MSD) binding assay, DLL4 immobilised, Fab at 10 nM
# T1 construct: also called rHuman DLL4; Delta-like 4
# [2] = molecular target: T2, Recombinant Human DLL4 (R&D Systems Cat#1506-D4/CF) (human, UniProt Q9NR61 27-524); assay: ELISA on coated DLL4, 100 nM Fab
# T2 construct: Bought recombinant human DLL4; also called delta-like protein 4; rHuman DLL4
# [3] = molecular target: T2, Recombinant Human DLL4 (R&D Systems …); assay: ECL (MSD) binding assay, immobilised DLL4, 10 nM Fab;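 note: fab binding read as electrochemiluminescence via a TAG-labelled detection antibody, 1 h incubations at 20 °C, antigen signal compared with each well's blank, ratio of at least 4 scored as binder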
binder,measurement,setting,value
"Fab VH1-46_IGHD6-6*01_IGHJ1*01 S102A/S103P/S104F/H111F & L6_IGKJ1*01 N53A (Fab, V domains shown, also called APFF & L6_IGKJ1*01 N53A) VH: QVQLVQSGAEVKKPGASVKVSCKASGYTFTSYYMHWVRQAPGQGLEWMGIINPSGGSTSYAQKFQGRVTMTRDTSTSTVYMELSSLRSEDTAVYYCAREEYAPFSAEYFQFWGQGTLVTVSS VL: EIVLTQSPATLSLSPGERATLSCRASQSVSSYLAWYQQKPGQAPRLLIYDASARATGIPARFSGSGSGTDFTLTISSLEPEDFAVYYCQQRSNWPPWTFGQGTKVEIKR",Signal [10 nM Fab],[1],14200
"Fab VH1-46_IGHD6-6*01_IGHJ1*01 S102A/S103P/S104F/H111F & L6_IGKJ1*01 S52A (Fab, V domains shown, also called APFF & L6_IGKJ1*01 S52A) VH: QVQLVQSGAEVKKPGASVKVSCKASGYTFTSYYMHWVRQAPGQGLEWMGIINPSGGSTSYAQKFQGRVTMTRDTSTSTVYMELSSLRSEDTAVYYCAREEYAPFSAEYFQFWGQGTLVTVSS VL: EIVLTQSPATLSLSPGERATLSCRASQSVSSYLAWYQQKPGQAPRLLIYDAANRATGIPARFSGSGSGTDFTLTISSLEPEDFAVYYCQQRSNWPPWTFGQGTKVEIKR",Signal [10 nM Fab],[1],19300
"Fab VH1-46_IGHD6-6*01_IGHJ1*01 S102A/S103P/S104F/H111F & L6_IGKJ1*01 A55T (Fab, V domains shown, also called APFF & L6_IGKJ1*01 A55T) VH: QVQLVQSGAEVKKPGASVKVSCKASGYTFTSYYMHWVRQAPGQGLEWMGIINPSGGSTSYAQKFQGRVTMTRDTSTSTVYMELSSLRSEDTAVYYCAREEYAPFSAEYFQFWGQGTLVTVSS VL: EIVLTQSPATLSLSPGERATLSCRASQSVSSYLAWYQQKPGQAPRLLIYDASNRTTGIPARFSGSGSGTDFTLTISSLEPEDFAVYYCQQRSNWPPWTFGQGTKVEIKR",Signal [10 nM Fab],[1],13200
"Fab VH5-51_IGHD5-18*01>3_IGHJ4*01 G100K/G104T (H:KT) & V3-4_IGLJ1*01 S96M (Fab, V domains shown, Fab format: CH1 with His6 and Flag tags, and lambda CL, from the vectors; also called G100K/G104T & S96M) VH: EVQLVQSGAEVKKPGESLKISCKGSGYSFTSYWIGWVRQMPGKGLEWMGIIYPGDSDTRYSPSFQGQVTISADKSISTAYLQWSSLKASDTAMYYCARRKYSYTYDYFDYWGQGTLVTVSS VL: QTVVTQEPSFSVSPGGTVTLTCGLSSGSVSTSYYPSWYQQTPGQAPRTLIYSTNTRSSGVPDRFSGSILGNKAALTITGAQADDESDYYCVLYMGMGISYVFGTGTKVTVL",ELISA Signal [100 nM Fab],[2],0.02
same,ECL Signal [10 nM Fab],[3],61700
"Fab VH5-51_IGHD5-18*01>3_IGHJ4*01 G100K/G104T (H:KT) & V3-4_IGLJ1*01 S96L (Fab, V domains shown, Fab format: CH1 with His6 and Flag tags, and lambda CL, from the vectors; also called G100K/G104T & S96L) VH: EVQLVQSGAEVKKPGESLKISCKGSGYSFTSYWIGWVRQMPGKGLEWMGIIYPGDSDTRYSPSFQGQVTISADKSISTAYLQWSSLKASDTAMYYCARRKYSYTYDYFDYWGQGTLVTVSS VL: QTVVTQEPSFSVSPGGTVTLTCGLSSGSVSTSYYPSWYQQTPGQAPRTLIYSTNTRSSGVPDRFSGSILGNKAALTITGAQADDESDYYCVLYMGLGISYVFGTGTKVTVL",ELISA Signal [100 nM Fab],[2],0.02
same,ECL Signal [10 nM Fab],[3],40000
"Fab VH5-51_IGHD5-18*01>3_IGHJ4*01 G100K/G104T (H:KT) & V3-4_IGLJ1*01 (Fab, V domains shown, Fab format: CH1 with His6 and Flag tags, and lambda CL, from the vectors; also called KT double mutant; H:KT & L:wt) VH: EVQLVQSGAEVKKPGESLKISCKGSGYSFTSYWIGWVRQMPGKGLEWMGIIYPGDSDTRYSPSFQGQVTISADKSISTAYLQWSSLKASDTAMYYCARRKYSYTYDYFDYWGQGTLVTVSS VL: QTVVTQEPSFSVSPGGTVTLTCGLSSGSVSTSYYPSWYQQTPGQAPRTLIYSTNTRSSGVPDRFSGSILGNKAALTITGAQADDESDYYCVLYMGSGISYVFGTGTKVTVL",ELISA Signal [100 nM Fab],[2],0.01
same,ECL Signal [10 nM Fab],[3],36600
"Fab VH5-51_IGHD5-18*01>3_IGHJ4*01 G100K/G104T (H:KT) & V3-4_IGLJ1*01 S96E (Fab, V domains shown, Fab format: CH1 with His6 and Flag tags, and lambda CL, from the vectors; also called G100K/G104T & S96E) VH: EVQLVQSGAEVKKPGESLKISCKGSGYSFTSYWIGWVRQMPGKGLEWMGIIYPGDSDTRYSPSFQGQVTISADKSISTAYLQWSSLKASDTAMYYCARRKYSYTYDYFDYWGQGTLVTVSS VL: QTVVTQEPSFSVSPGGTVTLTCGLSSGSVSTSYYPSWYQQTPGQAPRTLIYSTNTRSSGVPDRFSGSILGNKAALTITGAQADDESDYYCVLYMGEGISYVFGTGTKVTVL",ELISA Signal [100 nM Fab],[2],0.02
same,ECL Signal [10 nM Fab],[3],57000
"Fab VH5-51_IGHD5-18*01>3_IGHJ4*01 G100K/G104T (H:KT) & V3-4_IGLJ1*01 S96A (Fab, V domains shown, Fab format: CH1 with His6 and Flag tags, and lambda CL, from the vectors; also called G100K/G104T & S96A) VH: EVQLVQSGAEVKKPGESLKISCKGSGYSFTSYWIGWVRQMPGKGLEWMGIIYPGDSDTRYSPSFQGQVTISADKSISTAYLQWSSLKASDTAMYYCARRKYSYTYDYFDYWGQGTLVTVSS VL: QTVVTQEPSFSVSPGGTVTLTCGLSSGSVSTSYYPSWYQQTPGQAPRTLIYSTNTRSSGVPDRFSGSILGNKAALTITGAQADDESDYYCVLYMGAGISYVFGTGTKVTVL",ELISA Signal [100 nM Fab],[2],0
same,ECL Signal [10 nM Fab],[3],1130
